The text below walks through data of patent publication US20230051538A1.

In test [1] the target is alpha-synuclein physiological tetramer (UniProt P37840). Nature of the test: SPR, antibody immobilized, steady state fitting.
The next test deals with alpha-synuclein monomer (UniProt P37840). Nature of the test: SPR, antibody immobilized, steady state fitting.
The target in test [2] is alpha-synuclein oligomers (UniProt P37840). Nature of the test: SPR, antibody immobilized, kinetic fitting, 1:1 model.
In test [3] the target is alpha-synuclein sonicated preformed fibrils (soluble fibrils) (human) (UniProt P37840). Described as above.
Test [4] deals with alpha-synuclein in Lewy Body Disease (LBD/DLB) brain (human) (UniProt P37840). Nature of the test: dot blot signal on LBD brain extract over control brain extract.

Turning to “NI-202.12F4 (Creative Biolabs) (antibody)”, the Kd in test [1] is 14000 nM; with alpha-synuclein monomer, 8600 nM; in test [2], 131 nM; in test [3], 12 nM. Besides, the values for the koff in test [2] and in test [3] were 0.001 s⁻¹ and 3.75e-05 s⁻¹, respectively. The values for the kon in test [2] and in test [3] were 7640 M⁻¹ s⁻¹ and 3100 M⁻¹ s⁻¹, respectively.

Consider “Prasinezumab, Human IgG, PRX002/RG7935, Creative Biolabs (antibody)”, for which the Kd stood at 50 nM in test [1], 100 nM in the test with alpha-synuclein monomer, 72 nM in test [2] and 11 nM in test [3]. The koff in test [2] amounted to 0.00181 s⁻¹; in test [3], 0.000209 s⁻¹. For the same substance, the kon in test [2] worked out at 25100 M⁻¹ s⁻¹; in test [3], 19500 M⁻¹ s⁻¹.

With “Syn-F1 aggregation/fibril preferring antibody”, in test [4], the Fold of reactivity LBD vs. Control (LBD / Control) worked out at 3.8 fold.

Consider “pan-Alpha Syn Antibody (4D6) (Biolegend)”, for which the Fold of reactivity LBD vs. Control (LBD / Control) in test [4] came to 2.2 fold.
